Experimental data as given in patent US20170174756A1 (AstraZeneca / MedImmune, published 2017).
Several values for one entry are separate records, joined by “and”; a condition that tells them apart may be missing. Equal entries are not always repeated.

Biological target: T1, Biotin Ang2 (R & D Systems) (UniProt O15123 19-496, biotinylated (sites not given))
T1 sequence (looked up): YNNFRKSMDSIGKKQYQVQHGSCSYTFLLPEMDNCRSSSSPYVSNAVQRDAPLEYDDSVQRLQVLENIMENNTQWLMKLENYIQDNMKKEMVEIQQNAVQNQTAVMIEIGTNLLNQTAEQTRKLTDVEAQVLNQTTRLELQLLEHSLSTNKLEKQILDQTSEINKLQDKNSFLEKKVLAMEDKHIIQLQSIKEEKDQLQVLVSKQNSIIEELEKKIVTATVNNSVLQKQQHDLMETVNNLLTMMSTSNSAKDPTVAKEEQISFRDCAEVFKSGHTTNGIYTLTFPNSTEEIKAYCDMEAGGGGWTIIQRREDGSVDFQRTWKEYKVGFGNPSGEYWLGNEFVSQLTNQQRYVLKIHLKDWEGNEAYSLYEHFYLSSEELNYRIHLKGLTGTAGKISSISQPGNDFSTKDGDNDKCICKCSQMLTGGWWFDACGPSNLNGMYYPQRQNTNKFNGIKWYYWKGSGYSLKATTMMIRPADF
Assay: competition ELISA: Tie-2 Fc coated on the plate, antibody varied, blocked ligand binding is Biotin Ang2 to Tie-2 Fc, streptavidin HRP, O.D. 450 nm
Method: The following day, plates were blocked for 1 hour at room temperature with 200 μl of phosphate buffered saline (PBS) (Invitrogen, Carlsbad, Calif.) containing 0.5% bovine serum albumin (BSA) (Sigma, St. Louis, Mo.) and 0.1% Tween-20 (Sigma, St. Louis, Mo.). Plates were washed 3 times with wash buffer (PBS containing 0.05% Tween-20). […] Plates were washed 3 times with wash buffer. Following the wash, 100 ul of 1:5000 streptavidin HRP (Pierce, Rockford, Ill.) dilution in wash buffer were added and incubated for 1 hour at room temperature. Plates were washed 3 times with wash buffer. Plates were developed by adding 100 μl of TMB peroxidase substrate (KPL, Gaithersburg, Md.) for 5 minutes. The reaction was stopped by adding 100 μl/well of 1M phosphoric acid. Optical densities were measured at 450 nm with a microplate reader (Molecular Devices, Sunnyvale, Calif.).

IC50 (read off the curve): ~0.1 mg/L and ~0.2 mg/L
B1: Ang-2 antibody 3.19.3 (antibody, V domains shown)
VH: QVQLVESGGGVVQPGRSLRLSCAASGFTFTNYGMHWGRQAPGKGLEWVAVISHDGNNKYYVDSVKGRFTISRDNSKNTLYLQMNSLRAEDTAVYYCAREGIDFWSGLNWFDPWGQGTLVTVSS
VL: EIVLTQSPGTLSLSPGERATLSCRASQSITGSYLAWYQQKPGQAPRLLICGASSWATGIPDRFSGSGSGTDFTLTISRLEPEDFAVYYCQQYSSSPITFGQGTRLEIKR
notes: Fully human monoclonal antibody; also called WT
